In one data set the target is GST-MeCP2 AT-hook 1 (UniProt P51608). Put plainly: competition EMSA. The settings on record: 0.8 ug poly(dA-dT) against N1 probe; EMSA: 10 mM Tris-HCl pH 7.5, 50 mM KCl, 0.5 mM MgCl2, 0.1 mM EDTA, 0.1 mg/mL BSA, 5% glycerol; 0.5 ng probe in 20 uL; 30 min on ice; native 6% acrylamide gel. (Mobility shift assays separate free from complexed probe on a gel.)
The next data set deals with GST-MeCP2 AT-hook 2 (UniProt P51608). Put plainly: competition EMSA. The following applies: 0.8 ug poly(dA-dT) against N1 probe; EMSA: 10 mM Tris-HCl pH 7.5, 50 mM KCl, 0.5 mM MgCl2, 0.1 mM EDTA, 0.1 mg/mL BSA, 5% glycerol; 0.5 ng probe in 20 uL; 30 min on ice; native 6% acrylamide gel.

This is an account of results in PMC5028900.

Chain of UniProt P51608 (P51608 whole entry): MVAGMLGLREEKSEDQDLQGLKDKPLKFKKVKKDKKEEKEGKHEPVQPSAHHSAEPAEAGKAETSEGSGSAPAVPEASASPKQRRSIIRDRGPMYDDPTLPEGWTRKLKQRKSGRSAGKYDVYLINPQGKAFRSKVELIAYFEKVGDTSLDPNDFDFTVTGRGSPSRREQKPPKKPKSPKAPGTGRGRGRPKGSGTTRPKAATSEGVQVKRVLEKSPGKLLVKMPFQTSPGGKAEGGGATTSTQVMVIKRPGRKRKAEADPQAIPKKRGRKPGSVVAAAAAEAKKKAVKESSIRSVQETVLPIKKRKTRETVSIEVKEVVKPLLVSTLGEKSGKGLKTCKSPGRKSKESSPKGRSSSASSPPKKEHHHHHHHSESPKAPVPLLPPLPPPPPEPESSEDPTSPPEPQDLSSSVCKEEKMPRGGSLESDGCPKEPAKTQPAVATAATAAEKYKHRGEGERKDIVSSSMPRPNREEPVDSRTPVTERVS

In the case of poly(dA-dT), the binding signal (% of bound probe displaced) with GST-MeCP2 AT-hook 1 is 67; with GST-MeCP2 AT-hook 2, 20.
